Molecular target: T1, CALEOSIN 2 (CLO2), Cub fusion (Arabidopsis thaliana, UniProt Q9FLN9 1-243)
T1 construct: CALEOSIN 2 of Arabidopsis thaliana; the coding region was amplified and inserted into pMetYCgate; Bait; source: yeast split-ubiquitin fusion (pMetYCgate, S. cerevisiae THY.AP4)
Assay: two-hybrid; mating-based split-ubiquitin system in yeast; Cub fusions as bait, NubG fusions as prey; quantitative β-galactosidase assay (Beta-Glo), activity normalized to a reference pair
Settings: partners not purified

T1 sequence (Q9FLN9 whole entry, the tested form may be a part): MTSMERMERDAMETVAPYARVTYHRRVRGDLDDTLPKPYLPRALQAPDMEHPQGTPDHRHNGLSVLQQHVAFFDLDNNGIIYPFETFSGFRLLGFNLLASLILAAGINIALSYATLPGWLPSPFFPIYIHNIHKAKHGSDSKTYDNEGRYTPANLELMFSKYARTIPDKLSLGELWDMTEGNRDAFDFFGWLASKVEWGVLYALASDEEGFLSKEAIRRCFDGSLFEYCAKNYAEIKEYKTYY

B1: AUTOPHAGY-RELATED PROTEIN 8b (ATG8b), NubG fusion (natural protein, Arabidopsis thaliana, UniProt Q9XEB5 1-117, looked up)
chain: MEKNSFKLSNPLEMRMAESTRIRAKYPERVPVIVEKAGQSDVPDIDKKKYLVPADLTIGQFVYVVRKRIKLGAEKAIFVFVKNTLPPTAALMSAIYEEHKDEDGFLYMTYSGENTFG
notes: AUTOPHAGY-RELATED PROTEIN 8b of Arabidopsis thaliana; the coding region was amplified and inserted into pNXgate32-3HA; Prey; source: yeast split-ubiquitin fusion (pNXgate32-3HA, S. cerevisiae THY.AP5)
In the case of B1, the “fold weaker β-galactosidase activity than with CLO1, CLO3 and OLE1” value is reported as 2 fold.
